{"source": "patent US20260042834A1", "about": "“ANTI-CORTICOTROPIN-RELEASING HORMONE ANTIBODIES AND POLYCYSTIC OVARY SYNDROME” (HBM ALPHA THERAPEUTICS, INC., priority 2022, published 2026)", "molecules": {"B1": {"name": "PR302334-24: humanized variant of Series 9 mAb PR302334; VH SEQ ID NO: 275, VL SEQ ID NO: 328 (antibody, V domains shown)", "VH": "EVQLVESGGGLVKPGGSLRLSCAASGFTFSTYAMSWVRQAPGKGLEWVASIRSGGTTYYPDSVKGRFTISRDNAKNSLYLQMNSLRAEDTAVYYCTRGIDWGQGTTVTVSS", "VL": "DIVMTQSPDSLAVSLGERATINCKASQSVNNDVAWYQQKPGQPPRLLIYYASNRYTGVPDRFSGSGSGTDFTLTISSLQAEDLAVYFCQQDYSSWTFGGGTKVEIK", "modifications": "PR302334-16 VH, PR302334-24 VH, PR302334-25 VH; PR302334-10 VL, PR302334-24 VL, PR302334-26 VL, PR302334-4 VL"}}, "system": "restraint-induced ACTH and corticosterone", "assay": "Wildtype mice restraint-stress model (ACTH and corticosterone)", "type": "in vivo, mouse", "procedure": "8-10 week old wildtype female C57BL/6 mice were obtained from Charles River Laboratories. Mrap1 KO mice were obtained from Queen Mary University of London, UK. SSR125543A, a small molecule CRHR1 antagonist, was obtained from Axon Medchem (Cat #Axon 1799). Mouse Corticosterone (55-Corms-E01) and adrenocorticotropic hormone (ACTH) ELISA kits (21-ACTHU-E01) were obtained from ALPCO, USA. All procedures were carried out in accordance with the Guide for the Care and Use of Laboratory Animals of the National Institutes of Health. Protocols were approved by Charles River Laboratories Institutional Animal Care and Use Committee (IACUC).\nTo determine the effect of nonpainful physical restraint upon stress responses, mice were restrained in 50 ml polypropylene ventilated tubes in which the tip was cut off with a razor blade to allow the mouse to breathe easily for 15-20 minutes. A mouse was directed to the open tube and crawled in. A piece of paper towel was put behind the mouse so that it could not back out, and the cap was screwed on. The mouse was placed back in its cage, ventral size down on the bedding. This stressor is not considered painful, as mice are confined to a limited space (in a ventilated restraint tube) but not in an unnatural physical position. The investigator was present in the room during the entire procedure. At the end of the procedure, the mouse was removed by the tail.\nOn day 1, each mouse was injected intraperitoneally with 20 mg/kg of anti-CRH mAbs, hIgG1 or PBS (5 mice per group). On day 2 or 3, and 14 each mouse was subjected to physical restraint-stress described above for 15 or 20 min. Immediately after restraint-stress, 200 μl of blood was collected in EDTA tubes from the submandibular vein of each mouse. Plasma was separated using a refrigerated centrifuge (4° C. at 500×g for 10 min) and snap-frozen in dry ice for subsequent ACTH and corticosterone ELISA measurement.\nOn day 1, one half of mice were injected IP with 20 mg/kg of anti-CRH Ab or hIgG1 (5 mice per group). On day 3, the other half of mice were injected IP with 30 mg/kg of SSR125543A or solvent (5 mice each group). Two hours later, four groups of mice were subjected to restraint-stress as described above for 20 min. Immediately after restraint-stress, 200 μl of blood was collected in EDTA tubes from the submandibular vein of each mouse in all four groups. Plasma was separated as described above and snap-frozen in dry ice for subsequent ACTH and corticosterone ELISA measurement. On day 4, SSR125543A or solvent-treated mice were subjected to a second round of restraint stress for 20 min and plasma was collected. Two weeks later, anti-CRH mAb- or hIgG1-treated mice were subjected to physical stress for 20 min followed by plasma collection.", "data": [{"molecule": "B1", "values": [{"measurement": "efficacy versus SSR125543A at inhibiting restraint induced ACTH and corticosterone", "setting": "doses not given", "result": "superior efficacy"}, {"measurement": "duration of the effects", "setting": "restraint", "result": "at least 17 days"}, {"measurement": "inhibition of ACTH and corticosterone versus SSR125543A", "setting": "restraint", "result": "more complete inhibition"}, {"measurement": "efficacy in reducing plasma ACTH and corticosterone levels versus SSR125543A at 30 mg/kg", "setting": "restraint, mAb 20 mg/kg", "result": "more efficacious"}]}]}
